The text below walks through data of patent US20020045591A1, “Methods and therapeutic compositions for treating cancer” (priority 1998, published 2002).

Assay [1] deals with CHO cells. Description: Immunofluorescence localization in CHO cells. In kind it is cell-based. The settings on record: stably transfected CHO cells, FIG. 4. An excerpt:
Immunofluorescence microscopy: Cells cultured on glass coverslips were fixed with 3% paraformaldehyde in phosphate-buffered saline (PBS) and permeabilized with 0.5% Triton X-100. CHO cells were immunofluorescently labeled as described (Levenberg S. et al. (1998) Long-range and selective autoregulation of cell-cell and cell-matrix adhesions by cadherin or integrin ligands. J. Cell Sci. 111:347-357). Nuclei were visualized using DAPI and the fluorescence was examined using a Zeiss Axiophot microscope and a x100/1.3 Planapochromat objective.

Assay [2] has as its system β-catenin-mediated transactivation. Description: TOPFLASH/FOPFLASH luciferase transactivation in CHO cells. The format is cell-based. The settings on record: TOPFLASH, FIG. 5A lanes 7-9. The method, then: Cell culture and transfections: CHO and SW480 human colon carcinoma cells were cultured in Dulbecco's modified Eagle's medium containing 10% fetal calf serum in an 8% CO2 incubator at 37° C. Transfections were performed using Lipofectamine (Gibco, BRL, USA) according to the manufacturer's instructions. Stably transfected CHO clones were generated by co-transfection with a plasmid encoding the puromycin resistance gene. Two days after transfection, cells were replated in the presence of 10 μg/ml puromycin (Sigma, Holon, Israel). Stable clones were isolated 2 weeks later and tested for the expression of the transgene by Western blot analysis.
Transactivation assays: CHO cells were transfected with TOPFLASH or FOPFLASH vectors (van de Wetering et al., 1997, ibid) and with pCDNA3 coding for β-galactosidase to normalize for transfection efficiency. The transfection mixture also contained either β-catenin, LEF-1 or cadherin derivatives in different combinations, as indicated. SW480 cells were transfected with TOPFLASH and cadherin derivatives. […] The reactions were stopped with 1 M Na2CO3 and the absorbance at 420 nm was determined. […] The luciferase reaction was monitored by a TD-20e luminometer (Turner, USA) and normalized for the β-galactosidase activity. […]

B1: N-cadherin tail: Cytoplasmic domain of chicken N-cadherin tagged with a Flag epitope (protein)
chain: MKRRDKERQAKQLLIDPEDDVRDNILKYDEEGGGEEDQDYDLSQLQQPDTVEPDAIKPVGIRRLDERPIHAEPQYPVRSAAPHPGDIGDFINEGLKAADNDPTAPPYDSLLVFDYEGSGSTAGSLSSLNSSSSGGEQDYDYLNDWGPRFKKLADMYGGGDD
modifications: left off: small tags and cut ends
Take B1: in assay [1], the “subcellular localization of cadherin derivative and β-catenin” value is listed as “mainly localized in the nucleus”. For the same molecule, the “luciferase activity (LEF-1 transactivation) after transfection with LEF-1 and cadherin derivative” value in assay [2] is recorded as “no specific transactivation was detected”.
